Seven molecules from publication PMC3285539 (Nature, 2012) can be followed below.

Sequences and labels used below:
B2: Rpt3 (natural protein)
chain: MEELGIVTPVEKAVEEKPAVKSYASLLAQLNGTVNNNSALSNVNSDIYFKLKKLEKEYELLTLQEDYIKDEQRHLKRELKRAQEEVKRIQSVPLVIGQFLEPIDQNTGIVSSTTGMSYVVRILSTLDRELLKPSMSVALHRHSNALVDILPPDSDSSISVMGENEKPDVTYADVGGLDMQKQEIREAVELPLVQADLYEQIGIDPPRGVLLYGPPGTGKTMLVKAVANSTKAAFIRVNGSEFVHKYLGEGPRMVRDVFRLARENAPSIIFIDEVDSIATKRFDAQTGSDREVQRILIELLTQMDGFDQSTNVKVIMATNRADTLDPALLRPGRLDRKIEFPSLRDRRERRLIFGTIASKMSLAPEADLDSLIIRNDSLSGAVIAAIMQEAGLRAVRKNRYVILQSDLEEAYATQVKTDNTVDKFDFYK

Common to all, as to test: cryo-EM structure
Experiment [1] addresses Rpt2 (S. cerevisiae, UniProt P40327 1-437).
The target in experiment [2] is T1, Rpn5 (S. cerevisiae, UniProt Q12250 1-445).
T1 sequence: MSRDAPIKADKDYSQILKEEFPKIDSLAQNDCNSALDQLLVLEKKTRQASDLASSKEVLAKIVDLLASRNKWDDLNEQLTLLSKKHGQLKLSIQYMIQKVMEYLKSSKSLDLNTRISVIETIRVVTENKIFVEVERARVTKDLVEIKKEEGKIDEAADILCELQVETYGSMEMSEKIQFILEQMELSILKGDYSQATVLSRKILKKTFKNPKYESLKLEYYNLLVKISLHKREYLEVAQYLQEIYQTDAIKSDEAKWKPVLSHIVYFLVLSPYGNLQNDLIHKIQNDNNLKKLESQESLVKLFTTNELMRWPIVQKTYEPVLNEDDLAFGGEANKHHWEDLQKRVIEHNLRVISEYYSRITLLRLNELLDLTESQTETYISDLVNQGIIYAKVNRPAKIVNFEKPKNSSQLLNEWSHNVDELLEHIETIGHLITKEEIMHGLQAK

Experiment [3] deals with T2, Rpn6 (S. cerevisiae, UniProt Q12377 1-434).
T2 sequence: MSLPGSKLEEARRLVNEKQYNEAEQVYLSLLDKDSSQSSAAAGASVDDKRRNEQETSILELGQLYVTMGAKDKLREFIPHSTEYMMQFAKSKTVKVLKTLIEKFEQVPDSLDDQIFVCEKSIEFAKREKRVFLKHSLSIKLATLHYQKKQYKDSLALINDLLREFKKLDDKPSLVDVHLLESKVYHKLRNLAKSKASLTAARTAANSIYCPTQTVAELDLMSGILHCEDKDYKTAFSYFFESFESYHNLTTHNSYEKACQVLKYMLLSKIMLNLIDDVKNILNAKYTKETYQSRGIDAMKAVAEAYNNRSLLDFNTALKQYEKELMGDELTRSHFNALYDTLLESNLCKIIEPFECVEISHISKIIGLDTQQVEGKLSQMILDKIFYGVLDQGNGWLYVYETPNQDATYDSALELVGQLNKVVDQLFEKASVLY

Experiment [4] has as its target T3, Rpn2 (S. cerevisiae, UniProt P32565 1-945).
T3 sequence: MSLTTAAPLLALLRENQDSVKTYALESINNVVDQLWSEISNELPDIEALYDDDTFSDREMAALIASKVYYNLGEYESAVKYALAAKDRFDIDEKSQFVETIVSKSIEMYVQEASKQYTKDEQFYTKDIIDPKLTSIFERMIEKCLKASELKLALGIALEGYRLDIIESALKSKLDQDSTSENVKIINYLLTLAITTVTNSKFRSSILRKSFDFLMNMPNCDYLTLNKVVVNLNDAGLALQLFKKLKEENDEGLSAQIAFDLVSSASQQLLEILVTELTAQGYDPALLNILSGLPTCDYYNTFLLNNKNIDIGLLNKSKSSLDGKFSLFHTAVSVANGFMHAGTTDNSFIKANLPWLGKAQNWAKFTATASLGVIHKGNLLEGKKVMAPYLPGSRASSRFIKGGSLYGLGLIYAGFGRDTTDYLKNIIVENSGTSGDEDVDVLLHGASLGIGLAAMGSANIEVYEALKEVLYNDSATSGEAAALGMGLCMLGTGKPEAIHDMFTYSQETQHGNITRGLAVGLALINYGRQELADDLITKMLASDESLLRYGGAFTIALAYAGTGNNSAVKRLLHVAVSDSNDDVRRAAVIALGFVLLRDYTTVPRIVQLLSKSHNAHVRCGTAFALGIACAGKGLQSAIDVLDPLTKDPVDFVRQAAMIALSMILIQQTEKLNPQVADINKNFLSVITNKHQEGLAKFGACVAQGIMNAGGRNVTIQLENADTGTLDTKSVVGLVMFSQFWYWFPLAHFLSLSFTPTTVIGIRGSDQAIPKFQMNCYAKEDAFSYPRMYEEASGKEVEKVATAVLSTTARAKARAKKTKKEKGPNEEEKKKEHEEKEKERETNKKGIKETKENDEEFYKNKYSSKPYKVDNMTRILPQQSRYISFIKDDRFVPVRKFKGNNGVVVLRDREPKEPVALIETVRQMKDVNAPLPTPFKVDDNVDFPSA

Experiment [5] has as its target B2.

Rpt2, sequence (P40327 whole entry): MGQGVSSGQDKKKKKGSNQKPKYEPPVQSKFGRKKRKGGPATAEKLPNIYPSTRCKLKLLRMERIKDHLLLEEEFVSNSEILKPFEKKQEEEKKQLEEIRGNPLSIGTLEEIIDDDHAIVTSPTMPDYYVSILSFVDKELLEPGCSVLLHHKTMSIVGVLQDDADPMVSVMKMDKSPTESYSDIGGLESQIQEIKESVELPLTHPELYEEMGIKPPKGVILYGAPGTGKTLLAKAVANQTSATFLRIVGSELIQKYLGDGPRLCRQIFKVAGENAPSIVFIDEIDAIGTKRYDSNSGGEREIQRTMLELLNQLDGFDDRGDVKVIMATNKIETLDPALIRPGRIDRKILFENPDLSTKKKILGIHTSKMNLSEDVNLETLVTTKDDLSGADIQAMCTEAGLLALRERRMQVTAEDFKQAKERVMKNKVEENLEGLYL

B1: 20S core subunit α3 (natural protein)
chain: MGSRRYDSRTTIFSPEGRLYQVEYALESISHAGTAIGIMASDGIVLAAERKVTSTLLEQDTSTEKLYKLNDKIAVAVAGLTADAEILINTARIHAQNYLKTYNEDIPVEILVRRLSDIKQGYTQHGGLRPFGVSFIYAGYDDRYGYQLYTSNPSGNYTGWKAISVGANTSAAQTLLQMDYKDDMKVDDAIELALKTLSKTTDSSALTYDRLEFATIRKGANDGEVYQKIFKPQEIKDILVKTGITKKDEDEEADEDMK
As for B1, in experiment [1], the binding result is reported as “binds”.
B2: the binding result in experiment [2], in experiment [3] and in experiment [4] was “binds” throughout.

B3: 20S core subunit α1 (natural protein)
chain: MSGAAAASAAGYDRHITIFSPEGRLYQVEYAFKATNQTNINSLAVRGKDCTVVISQKKVPDKLLDPTTVSYIFCISRTIGMVVNGPIPDARNAALRAKAEAAEFRYKYGYDMPCDVLAKRMANLSQIYTQRAYMRPLGVILTFVSVDEELGPSIYKTDPAGYYVGYKATATGPKQQEITTNLENHFKKSKIDHINEESWEKVVEFAITHMIDALGTEFSKNDLEVGVATKDKFFTLSAENIEERLVAIAEQD
Take B3: the binding result in experiment [2] and in experiment [5] was “binds” each time.

B4: 20S core subunit α2 (natural protein)
chain: MTDRYSFSLTTFSPSGKLGQIDYALTAVKQGVTSLGIKATNGVVIATEKKSSSPLAMSETLSKVSLLTPDIGAVYSGMGPDYRVLVDKSRKVAHTSYKRIYGEYPPTKLLVSEVAKIMQEATQSGGVRPFGVSLLIAGHDEFNGFSLYQVDPSGSYFPWKATAIGKGSVAAKTFLEKRWNDELELEDAIHIALLTLKESVEGEFNGDTIELAIIGDENPDLLGYTGIPTDKGPRFRKLTSQEINDRLEAL
As to B4, the binding result in experiment [5] and in experiment [3] was “binds” throughout.

B5: Rpn7 (natural protein)
chain: MVDVEEKSQEVEYVDPTVNRVPNYEVSEKAFLLTQSKVSIEQRKEAAEFVLAKIKEEEMAPYYKYLCEEYLVNNGQSDLEHDEKSDSLNEWIKFDQELYNELCKKNESKIKELNEKIQKLEEDDEGELEQAQAWINLGEYYAQIGDKDNAEKTLGKSLSKAISTGAKIDVMLTIARLGFFYNDQLYVKEKLEAVNSMIEKGGDWERRNRYKTYYGIHCLAVRNFKEAAKLLVDSLATFTSIELTSYESIATYASVTGLFTLERTDLKSKVIDSPELLSLISTTAALQSISSLTISLYASDYASYFPYLLETYANVLIPCKYLNRHADFFVREMRRKVYAQLLESYKTLSLKSMASAFGVSVAFLDNDLGKFIPNKQLNCVIDRVNGIVETNRPDNKNAQYHLLVKQGDGLLTKLQKYGAAVRLTGSDRV
Consider B5, for which, in experiment [1], the binding result was “binds”.

B6: Rpn13 (natural protein)
chain: MSMSSTVIKFRAGVCEYNEDSRLCTPIPVQGEIEIKPNEEEELGFWDFEWRPTEKPVGRELDPISLILIPGETMWVPIKSSKSGRIFALVFSSNERYFFWLQEKNSGNLPLNELSAKDKEIYNKMIGVLNNSSESDEEESNDEKQKAQDVDVSMQD
Consider B6, for which the binding result in experiment [4] is listed as “binds”.

B7: Rpn12 (natural protein)
chain: MPSLAELTKSLSIAFENGDYAACEKLLPPIKIELIKNNLLIPDLSIQNDIYLNDLMITKRILEVGALASIQTFNFDSFENYFNQLKPYYFSNNHKLSESDKKSKLISLYLLNLLSQNNTTKFHSELQYLDKHIKNLEDDSLLSYPIKLDRWLMEGSYQKAWDLLQSGSQNISEFDSFTDILKSAIRDEIAKNTELSYDFLPLSNIKALLFFNNEKETEKFALERNWPIVNSKVYFNNQSKEKADYEDEMMHEEDQKTNIIEKAMDYAISIENIV
Regarding B7, in experiment [4], the binding result is given as “binds”.
